Reference: US6458934 (LG CHEMICAL, dated 2002)

Experiments:
[1] = target: T1, 4-1BB antigen (human, UniProt Q07011 24-186, limits assumed); test: BIAcore SPR; ratio of Kd against mouse monoclonal antibody 4B4-1-1
T1 construct: also called human 4-1BB; h4-1BB
Experimental: (§1) The binding affinity of the mouse monoclonal antibody 4B4-1-1 and humanized antibody were determined and compared using the BIAcore™ assay (Pharmacia). Rabbit anti-mouse IgG (Sigma) and goat anti-human IgG (Fc-specific) were each diluted in 10 mM acetic acid buffer, and coupled to a Dextran CM-5 sensor chip (Pharmacia). 1 M ethanolamine was added to stop the reaction. Mouse monoclonal antibody 4B4-1-1 and humanized antibody Hz4B4-1 were each diluted to a concentration of 50 μg/ml in HEPES buffer (HBS). The coupled antibodies were bound at 100 resonance units (R.U.), and 25 μg/ml of 4-1BB antigen was applied at a flow rate of 10 μl/min. and bound for 5 minutes. HBS buffer (Pharmacia) was applied for 5 minutes at the same flow rate so that dissociation would occur. The association rate and dissociation rates and corresponding rate constants were determined by using BIA evaluation software. The results are shown in Table 2 as $kon$ and $koff$ values; K_d is also shown.
(§2) The antigen binding affinity of the purified Hz4B4-2 humanized antibody was measured as in Example 5 using the BIAcore™ assay (Pharmacia).

[2] = target: T1, 4-1BB antigen; test: summary of the BIAcore results; ratio against mouse monoclonal antibody 4B4-1-1
[3] = target: T1, 4-1BB antigen; test: summary of the BIAcore results; ratio against Hz4B4-1
[4] = target: T1, 4-1BB antigen; test: BIAcore SPR; antibody captured by anti-mouse IgG on a CM-5 chip, 4-1BB antigen 25 µg/ml in flow
Experimental: as §1

[5] = target: T1, 4-1BB antigen; test: BIAcore SPR as in Example 5; antibody captured, 4-1BB antigen in flow
Experimental: as §1, §2

[6] = target: T1, 4-1BB antigen; test: BIAcore SPR; antibody captured by anti-human IgG (Fc-specific) on a CM-5 chip, 4-1BB antigen 25 µg/ml in flow
Experimental: as §1

| fold greater antigen binding affinity than mouse monoclonal antibody 4B4-1-1 [1] [fold] | fold higher antigen binding affinity than the original mouse monoclonal antibody [2] [fold] | fold greater antigen binding affinity than Hz4B4-1 [3] [fold] | Kd [4] [nM] | koff [4] [s⁻¹] | kon [4] [M⁻¹ s⁻¹] | Kd [5] [nM] | kon [5] [M⁻¹ s⁻¹] | fold greater antigen binding affinity (Kd) than mouse antibody 4B4-1-1 [1] [fold] | fold greater antigen binding affinity (Kd) than mouse monoclonal antibody 4B4-1-1 [1] [fold] | Kd [6] [nM] | koff [6] [s⁻¹] | kon [6] [M⁻¹ s⁻¹] | koff [5] [s⁻¹] | Binder |
| --- | --- | --- | --- | --- | --- | --- | --- | --- | --- | --- | --- | --- | --- | --- |
| 7.3 | 7 | 5 | – | – | – | – | – | – | – | – | – | – | – | humanized antibody Hz4B4-2 (antibody, V domains shown, Whole antibody made in CHO-K1 cells (SB500 clone); The variable regions were put into the Hz4B4-1 expression vectors, so it has the same human kappa and human heavy chain constant regions; also called Hz4B4k-2 (light chain); Hz4B4h-2 (heavy chain)) VH: QVQLVQSGAEVKKPGASVKVSCKASGYTFSSYWMHWVRQAPGQRLEWMGEINPGNGHTNYSQKFQGRVTITVDKSASTAYMELSSLRSEDTAVYYCARSFTTARAFAYWGQGTLVTVSS VL: DIVMTQSPPTLSLSPGERVTLSCRASQSISDYLHWYQQKPGQSPRLLIKYASQSISGIPARFSGSGSGTDFTLTISSLEPEDFAVYYCQDGHSFPPTFGGGTKVEIK |
| – | – | – | 0.133 | 1.54e-06 | 11600 | 0.133 | 11600 | – | – | – | – | – | – | mouse monoclonal antibody 4B4-1-1 (antibody, V domains shown, Whole mouse monoclonal antibody from a hybridoma; also called 4B4 MAb; 4B4 monoclonal antibody) VH: QVQLQQPGAELVKPGASVKLSCKASGYTFSSYWMHWVKQRPGQVLEWIGEINPGNGHTNYNEKFKSKATLTVDKSSSTAYMQLSSLTSEDSAVYYCARSFTTARAFAYWGQGTLVTVSA VL: DIVMTQSQATQSVTPGDRVSLSCRASQTISDYLHWYQQKSHESPRLLIKYASQSISGIPSRFSGSGSGSDFTLSINSVEPEDVGVYYCQDGHSFPPTFGGGTKLEIK |
| – | – | – | – | – | – | 0.0872 | 50000 | ~1.5 | 1.5 | 0.0872 | 4.36e-06 | 50000 | 4.36e-06 | humanized antibody Hz4B4-1 (antibody, V domains shown, also called Hz4B4k-1 (light chain variable region); Hz4B4h-1 (heavy chain variable region)) VH: QVQLVQSGAEVVKPGASVKLSCKASGYTFSSYWMHWVKQAPGQVLEWIGEINPGNGHTNYNEKFKSKATLTVDKSASTAYMELSSLRSEDTAVYYCARSFTTARAFAYWGQGTLVTVSS VL: DIVMTQSPATQSVSPGERVTLSCRASQTISDYLHWYQQKPGQSPRLLIKYASQSISGIPSRFSGSGSGSDFTLTISSVEPEDFGVYYCQDGHSFPPTFGGGTKLEIK |
